Reference: patent US20230279089A1 (GlaxoSmithKline, published 2023)
Where a chain is given by its changes, count along the chain named.

T1: Human BMP1-1 (human, UniProt P13497-2 121-730, limits assumed)
T1 sequence (looked up): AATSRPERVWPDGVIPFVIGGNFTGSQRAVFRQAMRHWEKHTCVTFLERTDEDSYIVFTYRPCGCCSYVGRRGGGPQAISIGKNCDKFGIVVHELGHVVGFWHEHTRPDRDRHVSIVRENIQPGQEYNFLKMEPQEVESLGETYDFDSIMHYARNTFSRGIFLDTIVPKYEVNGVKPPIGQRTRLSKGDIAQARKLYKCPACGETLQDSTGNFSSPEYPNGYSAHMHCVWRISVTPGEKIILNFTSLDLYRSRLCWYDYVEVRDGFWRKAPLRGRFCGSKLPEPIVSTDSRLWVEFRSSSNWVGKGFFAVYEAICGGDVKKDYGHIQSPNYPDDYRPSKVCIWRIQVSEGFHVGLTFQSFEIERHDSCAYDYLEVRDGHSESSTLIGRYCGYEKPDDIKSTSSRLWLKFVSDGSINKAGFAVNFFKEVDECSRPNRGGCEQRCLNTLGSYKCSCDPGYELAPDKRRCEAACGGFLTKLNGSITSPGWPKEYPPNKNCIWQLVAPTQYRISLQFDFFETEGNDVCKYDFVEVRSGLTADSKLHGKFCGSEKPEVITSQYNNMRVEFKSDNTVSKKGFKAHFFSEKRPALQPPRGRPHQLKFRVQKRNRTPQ

T2: Human TLL1 (human, UniProt O43897 148-1013, limits assumed)
T2 sequence (looked up): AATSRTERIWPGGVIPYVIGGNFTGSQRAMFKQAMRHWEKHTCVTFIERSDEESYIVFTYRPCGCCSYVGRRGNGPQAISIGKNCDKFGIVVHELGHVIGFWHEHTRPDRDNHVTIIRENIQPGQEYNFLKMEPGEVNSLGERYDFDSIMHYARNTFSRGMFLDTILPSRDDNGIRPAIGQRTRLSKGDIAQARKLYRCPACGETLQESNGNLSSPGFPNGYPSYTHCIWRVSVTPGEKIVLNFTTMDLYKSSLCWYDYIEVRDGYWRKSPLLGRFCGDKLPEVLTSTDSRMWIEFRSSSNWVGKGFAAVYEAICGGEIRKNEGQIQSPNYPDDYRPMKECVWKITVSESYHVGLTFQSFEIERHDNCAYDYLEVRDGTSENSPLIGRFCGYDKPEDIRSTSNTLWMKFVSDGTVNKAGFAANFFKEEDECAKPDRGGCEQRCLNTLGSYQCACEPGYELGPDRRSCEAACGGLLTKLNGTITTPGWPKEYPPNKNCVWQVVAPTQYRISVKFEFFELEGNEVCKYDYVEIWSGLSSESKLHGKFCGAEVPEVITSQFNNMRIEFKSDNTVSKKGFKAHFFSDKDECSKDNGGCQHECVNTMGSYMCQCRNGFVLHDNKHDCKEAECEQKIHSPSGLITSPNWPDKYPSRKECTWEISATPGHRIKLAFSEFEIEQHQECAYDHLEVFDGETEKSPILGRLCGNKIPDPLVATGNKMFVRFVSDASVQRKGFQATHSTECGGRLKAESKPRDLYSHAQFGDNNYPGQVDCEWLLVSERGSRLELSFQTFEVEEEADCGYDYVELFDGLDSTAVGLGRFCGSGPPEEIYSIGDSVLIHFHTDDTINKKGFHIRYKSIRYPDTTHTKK

T3: Mouse TLL1 (mouse, UniProt Q62381 148-1013, limits assumed)
T3 sequence (looked up): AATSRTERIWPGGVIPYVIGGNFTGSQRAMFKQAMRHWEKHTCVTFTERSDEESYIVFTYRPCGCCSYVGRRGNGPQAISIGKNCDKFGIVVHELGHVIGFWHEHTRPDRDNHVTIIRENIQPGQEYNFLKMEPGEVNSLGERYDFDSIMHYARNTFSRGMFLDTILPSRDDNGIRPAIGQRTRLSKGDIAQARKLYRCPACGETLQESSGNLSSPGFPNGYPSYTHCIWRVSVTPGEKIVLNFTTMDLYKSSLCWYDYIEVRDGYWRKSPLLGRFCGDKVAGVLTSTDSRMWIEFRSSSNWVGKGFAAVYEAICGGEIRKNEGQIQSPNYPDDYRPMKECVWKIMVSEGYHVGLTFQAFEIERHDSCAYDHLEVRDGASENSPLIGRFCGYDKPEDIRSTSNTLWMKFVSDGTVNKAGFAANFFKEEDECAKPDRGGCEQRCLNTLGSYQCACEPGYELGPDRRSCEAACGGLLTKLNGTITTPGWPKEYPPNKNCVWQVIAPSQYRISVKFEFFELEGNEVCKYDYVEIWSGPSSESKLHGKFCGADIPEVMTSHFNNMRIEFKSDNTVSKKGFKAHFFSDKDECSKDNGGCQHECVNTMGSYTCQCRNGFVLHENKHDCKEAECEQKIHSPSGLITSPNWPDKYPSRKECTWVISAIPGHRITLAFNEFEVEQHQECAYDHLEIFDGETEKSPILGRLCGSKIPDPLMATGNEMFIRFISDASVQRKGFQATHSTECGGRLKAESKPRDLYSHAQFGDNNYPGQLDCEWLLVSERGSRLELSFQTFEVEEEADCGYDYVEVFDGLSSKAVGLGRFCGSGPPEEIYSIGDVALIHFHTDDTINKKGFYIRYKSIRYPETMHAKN

B1: 13Y039-4B06-4373 (antibody, human IgG1, kappa, V domains shown)
VH: QVQLVQSGAEVKKPGASVKVSCKASGYTFRSYYMNWVRQAPGQGLEWMGIINPSSGETSYAQKFQGRVTMTRDTSTSTVYMELSSLRSEDTAVYYCARDTGELDGMNWYFDLWGRGTLVTVSS
VL: EIVLTQSPATLSLSPGERATLSCRASQSVSSYLAWYQQKPGQAPRLLIYDASNRATGIPARFSGSGSGTDFTLTISSLEPEDFAVYYCQQSDSWPPTFGGGTKVEIKR
notes: Fully human IgG1 LAGA, kappa; HEK expressed
B2: 13Y039-4B06-4376 (antibody, human IgG1, kappa, V domains shown)
VH: B1 VH with R30M, S31G, I50W, S59N, T76I, V79A, S85R, E89D
VL: B1 VL
notes: as for B1

How the values were obtained:
Assay in all cases: cell-based or functional assay
Human BMP1-1 = biological target: T1, Human BMP1-1
Human TLL1 = biological target: T2, Human TLL1
Mouse TLL1 = biological target: T3, Mouse TLL1

| Binder | IC50, FRET enzyme activity, 62.5 pM huBMP1 (Human BMP1-1) | IC50, FRET enzyme activity, 250 pM biotinylated huTLL-1 (Human TLL1) | IC50, FRET enzyme activity, 800 pM biotinylated mTLL-1 (Mouse TLL1) |
| --- | --- | --- | --- |
| B1 | 90 pM | 40 pM | 0.13 nM |
| B2 | 50 pM | 70 pM | 0.16 nM |
